# Measurements from patent US10208087B2, “Peptides” (Hoffmann-La Roche Inc., priority 2014, dated 2019).
# Counter-ions that a name gives are not always drawn. Starred links: 1 amine or outer side, 2 acyl side, 3 side chain; linkers in the order of their positions; H or OH if unused. Non-standard residues stand in square brackets, D forms with d. Residues, ends and D or L forms follow the SMILES beside them. No end group written: not given here. *: point of attachment. Elaidic = elaidic acid acyl on Lys side chain, CCCCCCCC/C=C/CCCCCCCC(=O)*; MetSta(3S,4S) = CSCC[C@H](N[*:1])[C@@H](O)CC(=O)[*:2]; Palmitoleoyl = CCCCCC/C=C\CCCCCCCC(=O)*; Sta = CC(C)C[C@H](N)[C@@H](O)CC(=O)O; Palmitoyl = CCCCCCCCCCCCCCCC(=O)*; PEG4 = NCCOCCOCCOCCOCCC(=O)O; PEG3 = NCCOCCOCCOCCC(=O)O; Nle = CCCC[C@H](N)C(=O)O; Palm = palmityl
# Target: BACE1 (UniProt P56817 46-501, limits assumed)
# Assay: cell-based or functional assay
# Conditions: not given
# Sequence of BACE1 (UniProt P56817 46-501, limits assumed) (P56817 46-501 limits assumed): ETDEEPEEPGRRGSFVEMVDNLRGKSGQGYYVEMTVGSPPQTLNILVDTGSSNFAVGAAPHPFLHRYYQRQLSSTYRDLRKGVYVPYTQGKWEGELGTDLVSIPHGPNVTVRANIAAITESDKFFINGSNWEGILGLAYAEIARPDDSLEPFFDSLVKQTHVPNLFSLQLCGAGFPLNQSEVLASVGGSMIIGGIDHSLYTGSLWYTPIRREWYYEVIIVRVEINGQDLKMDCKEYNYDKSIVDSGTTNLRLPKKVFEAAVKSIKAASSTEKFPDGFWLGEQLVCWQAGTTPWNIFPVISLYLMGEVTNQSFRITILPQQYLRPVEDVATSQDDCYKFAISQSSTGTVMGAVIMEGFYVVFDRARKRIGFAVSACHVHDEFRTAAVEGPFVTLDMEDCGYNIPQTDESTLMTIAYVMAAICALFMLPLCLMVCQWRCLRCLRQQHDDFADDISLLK
row,Molecule,"IC50, cellular Aβ-lowering assay (Aβ40 in supernatant of HEK293 cells expressing human APP695)"
1,YPYFIPLG[Nle]GEVN[Sta]VAEFK(Palm)-NH2 (also: TFA salt) [YPYFIPL-G-Nle-G-EVN-Sta-VAEFK(Palm)-NH2 x TFA],120 nM
2,"YPYFIPL[PEG4]EVN[MetSta(3S,4S)]VAE[dF]K(Palm)-NH2 (also: TFA salt) [YPYFIPL-PEG(4)-EVN-MetSta-VAE-DPhe-K(Palm)-NH2 x TFA]",18 nM
3,YPYFIPLGGGEVN[Sta]VAEFK(Palm)-NH2 (also: TFA salt) [YPYFIPL-GGG-EVN-Sta-VAEFK(Palm)-NH2 x TFA],120 nM
4,YPKFIPLG[dK]GEVN[Sta]VAE[dP]K(Erucic)-NH2 (also: 3TFA salt) [YPKFIPL-GkG-EVN-Sta-VAEp-K(Erucic)-NH2 x 3TFA],1.15 nM
5,YPYFIPLAGGEVN[Sta]VAEFK(Palm)-NH2 (also: TFA salt) [YPYFIPL-AGG-EVN-Sta-VAEFK(Palm)-NH2 x TFA],53 nM
6,YPKFIPLG[dK]GEVN[Sta]VAE[dP]K(Myristoleic)-NH2 (also: 3TFA salt) [YPKFIPL-GkG-EVN-Sta-VAEp-K(Myristoleic)-NH2 x 3TFA],208 nM
7,YPKFIPLG[dK]GEVN[Sta]VAE[dP]K(Elaidic)-NH2 (also: 3TFA salt) [YPKFIPL-GkG-EVN-Sta-VAEp-K(Elaidic)-NH2 x 3TFA],3.02 nM
8,YPYFIPLG[dP]GEVN[Sta]VAEFK(Palm)-NH2 (also: TFA salt) [YPYFIPL-GpG-EVN-Sta-VAEFK(Palm)-NH2 x TFA],48 nM
9,YPKFIPLG[dK]GEVN[Sta]VAE[dP]K(Palm)-NH2 (also: 3TFA salt) [YPKFIPL-GkG-EVN-Sta-VAEp-K(Palm)-NH2 x 3TFA],1.37 nM
10,YPYFIPLGPGEVN[Sta]VAEFK(Palm)-NH2 (also: TFA salt) [YPYFIPL-GPG-EVN-Sta-VAEFK(Palm)-NH2 x TFA],140 nM
11,YPYFIPLGGSEVN[Sta]VAEFK(Palm)-NH2 (also: TFA salt) [YPYFIPL-GGS-EVN-Sta-VAEFK(Palm)-NH2 x TFA],53 nM
12,YPYFIPLG[dA][dK]EVN[Sta]VAEFK(Palm)-NH2 (also: TFA salt) [YPYFIPL-Gak-EVN-Sta-VAEFK(Palm)-NH2 x TFA],98 nM

# Further lines, results first:
row,"IC50, cellular Aβ-lowering assay (Aβ40 in supernatant of HEK293 cells expressing human APP695)",Molecule
1,19.9 nM,YPKFIPLG[dK]GEVN[Sta]VAE[dP]K(Palmitoleoyl)-NH2 (also: 3TFA salt) [YPKFIPL-GkG-EVN-Sta-VAEp-K(Palmitoleic)-NH2 x 3TFA]
2,64 nM,YPYFIPLG[dK]GEVN[Sta]VAEFK(Palm)-NH2 (also: TFA salt) [YPYFIPL-GkG-EVN-Sta-VAEFK(Palm)-NH2 x TFA]
3,2.68 nM,YPKFIPLG[dK]GEVN[Sta]VAE[dP]K(Vaccenic)-NH2 (also: 3TFA salt) [YPKFIPL-GkG-EVN-Sta-VAEp-K(Vaccenic)-NH2 x 3TFA]
4,41 nM,"YPYFIPL[PEG3]EVN[MetSta(3S,4S)]VAE[dF]K(Palm)-NH2 (also: TFA salt) [YPYFIPL-PEG(3)-EVN-MetSta-VAE-DPhe-K(Palm)-NH2 x TFA]"
5,6.02 nM,YPKFIPLG[dK]GEVN[Sta]VAE[dP]K(Oleic)-NH2 (also: 3TFA salt) [YPKFIPL-GkG-EVN-Sta-VAEp-K(Oleic)-NH2 x 3TFA]
6,41 nM,YPYFIPLGSGEVN[Sta]VAEFK(Palm)-NH2 (also: TFA salt) [YPYFIPL-GSG-EVN-Sta-VAEFK(Palm)-NH2 x TFA]

# Target: T1, BACE1 (Homo sapiens, UniProt P56817)
# T1 construct: Human HEK293 cells which are stably transfected with a vector expressing a cDNA of the human APP wt gene (APP695); endogenous in cells; host or cells: HEK293 cells stably transfected with human APP695 wt
# Assay: Cellular Aβ-lowering Assay
# Type: cell-based
# Conditions: Aβ40 in culture supernatant (ELISA) of human HEK293 cells stably expressing human APP wt (APP695); 18-20 hrs incubation
# Protocol: The compounds were investigated in accordance with the test given hereinafter. Cellular Aβ-lowering Assay: Human HEK293 cells which are stably transfected with a vector expressing a cDNA of the human APP wt gene (APP695) were used to assess the potency of the compounds in a cellular assay. […] After blocking of non-specific binding sites with e.g. 1% BSA and washing, the culture supernatants were added in suitable dilutions together with a horseradish peroxidase-coupled Aβ detection antibody (e.g., antibody 4G8, Senetek, Maryland Heights, Mo.) and incubated for 5 to 7 hrs. Subsequently the wells of the microtiter plate were washed extensively with Tris-buffered saline containing 0.05% Tween 20 and the assay was developed with tetramethylbenzidine/H2O2 in citric acid buffer. After stopping the reaction with one volume 1 N H2SO4 the reaction was measured in an ELISA reader at 450 nm wavelength. The concentrations of Aβ in the culture supernatants were calculated from a standard curve obtained with known amounts of pure Aβ peptide.
# T1 sequence (P56817 46-501): as the sequence (P56817 46-501 limits assumed) above
row,IC50,Molecule
1,41 nM,"CCCCCCCCCCCCCCCC(=O)NCCCC[C@H](NC(=O)[C@@H](Cc1ccccc1)NC(=O)[C@H](CCC(=O)O)NC(=O)[C@H](C)NC(=O)[C@@H](NC(=O)C[C@H](O)[C@H](CCSC)NC(=O)[C@H](CC(N)=O)NC(=O)[C@@H](NC(=O)[C@H](CCC(=O)O)NC(=O)CCOCCOCCOCCNC(=O)[C@H](CC(C)C)NC(=O)[C@@H]1CCCN1C(=O)[C@@H](NC(=O)[C@H](Cc1ccccc1)NC(=O)[C@H](Cc1ccc(O)cc1)NC(=O)[C@@H]1CCCN1C(=O)[C@@H](N)Cc1ccc(O)cc1)[C@@H](C)CC)C(C)C)C(C)C)C(N)=O [Example 33, Tyr-Pro-Tyr-Phe-Ile-Pro-Leu-(PEG)3-Glu-Val-Asn-MetSta-Val-Ala-Glu-DPhe-Lys(Palm)-NH2 x TFA] (H-YPYFIPL[PEG3]EVN[MetSta(3S,4S)]VAE[dF]K(Palmitoyl)-NH2; N-terminus assumed)"
2,120 nM,"CCCCCCCCCCCCCCCC(=O)NCCCC[C@H](NC(=O)[C@H](Cc1ccccc1)NC(=O)[C@H](CCC(=O)O)NC(=O)[C@H](C)NC(=O)[C@@H](NC(=O)C[C@H](O)[C@H](CC(C)C)NC(=O)[C@H](CC(N)=O)NC(=O)[C@@H](NC(=O)[C@H](CCC(=O)O)NC(=O)CNC(=O)[C@H](CCCC)NC(=O)CNC(=O)[C@H](CC(C)C)NC(=O)[C@@H]1CCCN1C(=O)[C@@H](NC(=O)[C@H](Cc1ccccc1)NC(=O)[C@H](Cc1ccc(O)cc1)NC(=O)[C@@H]1CCCN1C(=O)[C@@H](N)Cc1ccc(O)cc1)[C@@H](C)CC)C(C)C)C(C)C)C(N)=O [Example 6, Tyr-Pro-Tyr-Phe-Ile-Pro-Leu-Gly-Nle-Gly-Glu-Val-Asn-Sta-Val-Ala-Glu-Phe-Lys(Palmityl)-NH2 x TFA]"
3,41 nM,"CCCCCCCCCCCCCCCC(=O)NCCCC[C@H](NC(=O)[C@H](Cc1ccccc1)NC(=O)[C@H](CCC(=O)O)NC(=O)[C@H](C)NC(=O)[C@@H](NC(=O)C[C@H](O)[C@H](CC(C)C)NC(=O)[C@H](CC(N)=O)NC(=O)[C@@H](NC(=O)[C@H](CCC(=O)O)NC(=O)CNC(=O)[C@H](CO)NC(=O)CNC(=O)[C@H](CC(C)C)NC(=O)[C@@H]1CCCN1C(=O)[C@@H](NC(=O)[C@H](Cc1ccccc1)NC(=O)[C@H](Cc1ccc(O)cc1)NC(=O)[C@@H]1CCCN1C(=O)[C@@H](N)Cc1ccc(O)cc1)[C@@H](C)CC)C(C)C)C(C)C)C(N)=O [Example 9, Tyr-Pro-Tyr-Phe-Ile-Pro-Leu-Gly-Ser-Gly-Glu-Val-Asn-Sta-Val-Ala-Glu-Phe-Lys(Palmityl)-NH2 x TFA] (H-YPYFIPLGSGEVN[Sta]VAEFK(Palmitoyl)-NH2; N-terminus assumed)"
